According to patent publication US20110294738A1, “PTHR1 RECEPTOR COMPOUNDS” (priority 2008, published 2011):
* marks the point of attachment. Palmitoyl = CCCCCCCCCCCCCCCC(=O)*

Legend:
PTHR1 [1] = molecular target: T1, PTHR1 (Rattus norvegicus, UniProt P25961)
T1 sequence (P25961 27-591): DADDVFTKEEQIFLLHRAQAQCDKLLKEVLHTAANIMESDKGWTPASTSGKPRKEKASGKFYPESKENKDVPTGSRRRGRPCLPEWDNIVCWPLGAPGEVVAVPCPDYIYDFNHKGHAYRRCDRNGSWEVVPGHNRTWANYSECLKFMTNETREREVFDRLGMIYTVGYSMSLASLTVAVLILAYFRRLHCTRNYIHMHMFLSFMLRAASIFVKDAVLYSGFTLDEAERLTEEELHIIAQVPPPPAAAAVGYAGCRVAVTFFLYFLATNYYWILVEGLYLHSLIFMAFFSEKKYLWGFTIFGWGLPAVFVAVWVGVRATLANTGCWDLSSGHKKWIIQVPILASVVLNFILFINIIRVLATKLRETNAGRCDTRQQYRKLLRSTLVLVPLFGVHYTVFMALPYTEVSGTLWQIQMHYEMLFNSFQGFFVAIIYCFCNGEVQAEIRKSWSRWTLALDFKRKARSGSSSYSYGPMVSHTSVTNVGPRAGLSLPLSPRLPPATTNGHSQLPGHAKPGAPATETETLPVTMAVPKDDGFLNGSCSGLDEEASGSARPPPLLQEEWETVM
Experimental: (§1) cAMP Screening Assay Using DiscoveRX XS+ Kit
(§2) UMR-106 cells were seeded in 96-well white plates at 10K cells/well in growth media. Twenty four hours after seeding, cell media was removed by gentle dumping and replaced with 30 μL of compounds diluted to 10 μM final concentration in assay buffer (Hank's balanced Salt Solution, 20 mM HEPES, pH 7.4, 0.1 μM IBMX). After 30 minute incubation at room temperature, 10 μL human PTH1-34 serial diluted in assay buffer was added. Cells were incubated at 37° C. for 15 minutes before 10 μL of water soluble analog of forskolin, NKH477 was added to final concentration of 10 μM followed by 60 minute incubation at room temperature. DiscoveRX cAMP XS+ kit reagents were then added following manufacture protocol. Briefly, 10 μL of antibody was added to each well followed by 40 μL of ED/Lysis buffer mix (1/5/19 for Galacon-star/Emerald/Lysis buffer and then 1:1 with ED). After 1 hour incubation, 40 μL of EA reagent was added followed by at least 1 hour incubation before the plates were read on TopCount reader. Data was analyzed using GraphPad Prism. PTH1-34 dose-response curves were fitted using non-linear curve fit (Y=Bottom+(Top−Bottom)/(1+10̂((Log EC50−X)*HillSlope))). PTH1-34 EC50 values calculated in the presence of compounds were compared to that in the presence of vehicle control. The ratio of the EC50 values were calculated and presented as fold shift (EC50 compound/EC50 vehicle). The effect of compounds on PTH1-34 stimulated maximal response was also assessed and was presented percent inhibition (1−(Emax compound/Emax vehicle)).

PTHR1 [2] = molecular target: T1, PTHR1; test: cAMP screening assay using DiscoveRX XS+ kit (PTH1-34 dose-response in UMR-106 cells); settings: compound 10 μM, PTH1-34 stimulated maximal response, 1−(Emax compound/Emax vehicle)
Experimental: as §1, §2

| Substance | Inhibition of Maximal Response (PTHR1 [2]) [%] | Fold Shift of EC50 (PTHR1 [1]) |
| --- | --- | --- |
| NIVRVLATKLRETNAGRSD [Compound 44] | −8.30 | 2 |
| GGYFRRLHSTRNYIH [Compound 13] | 29.20 | 0.7 |
| YFRRLHSTRNYIH [Compound 6] | 10.80 | 1 |
| LHSLIFMAFFSEKKYLWGFT [Compound 37] | 35.60 | 1.1 |
| AYFRRLHSTRNYIH [Compound 7] | 36.00 | 1.2 |
| LAYFRRLHSTRNYIH [Compound 5] | 13.00 | 1 |
| VRVLATKLRETNAGRSDTR [Compound 45] | 9.10 | 1.4 |
| LAYFRRLHSTRN [Compound 14] | 15.20 | 0.7 |
| Pal-GSEKKYLWGFTVF-amide (Palmitoyl-GSEKKYLWGFTVF-NH2; SMILES CCCCCCCCCCCCCCCC(=O)NCC(=O)N[C@@H](CO)C(=O)N[C@@H](CCC(=O)O)C(=O)N[C@@H](CCCCN)C(=O)N[C@@H](CCCCN)C(=O)N[C@@H](Cc1ccc(O)cc1)C(=O)N[C@@H](CC(C)C)C(=O)N[C@@H](Cc1c[nH]c2ccccc12)C(=O)NCC(=O)N[C@@H](Cc1ccccc1)C(=O)N[C@H](C(=O)N[C@H](C(=O)N[C@@H](Cc1ccccc1)C(N)=O)C(C)C)[C@@H](C)O) [Compound 41] | 17.70 | 0.9 |
| LYLHSLIFMAFFSEKKYL [Compound 39] | 29.30 | 1.3 |
| Pal-NGEVQAEIKKSWSRWTLALD-amide (Palmitoyl-NGEVQAEIKKSWSRWTLALD-NH2; SMILES CCCCCCCCCCCCCCCC(=O)N[C@@H](CC(N)=O)C(=O)NCC(=O)N[C@@H](CCC(=O)O)C(=O)N[C@H](C(=O)N[C@@H](CCC(N)=O)C(=O)N[C@@H](C)C(=O)N[C@@H](CCC(=O)O)C(=O)N[C@H](C(=O)N[C@@H](CCCCN)C(=O)N[C@@H](CCCCN)C(=O)N[C@@H](CO)C(=O)N[C@@H](Cc1c[nH]c2ccccc12)C(=O)N[C@@H](CO)C(=O)N[C@@H](CCCNC(=N)N)C(=O)N[C@@H](Cc1c[nH]c2ccccc12)C(=O)N[C@H](C(=O)N[C@@H](CC(C)C)C(=O)N[C@@H](C)C(=O)N[C@@H](CC(C)C)C(=O)N[C@@H](CC(=O)O)C(N)=O)[C@@H](C)O)[C@@H](C)CC)C(C)C) [Compound 105] | 34.00 | 1.1 |
| YLHSLIFMAFFSEKKYLWGFT [Compound 35] | 24.50 | 1.1 |
| RRLHSTRNYIHMH [Compound 1] | 5.50 | 1.3 |
| HSLIFMAFFSEKKYLWGFT [Compound 36] | 5.90 | 1.2 |
| TNAGRSDTRQQYRKLL [Compound 68] | – | 12.36 |
| LAYFRRLHSTR [Compound 4] | −74.20 | 0.9 |

Continued, in another order:

| Inhibition of Maximal Response (PTHR1 [2]) [%] | Substance | Fold Shift of EC50 (PTHR1 [1]) |
| --- | --- | --- |
| −39.00 | RSDTRQQYRKLLKS [Compound 66] | 16.4 |
| 26.80 | SRWTLALDFKRKAR [Compound 104] | 1.2 |
| −30.40 | DTRQQYRKLLKSTL [Compound 56] | 1.9 |
| 5.20 | TNAGRSDTRQQYRKLLFA [Compound 86] | 3.6 |
| 7.00 | EIKKSWSRWTLALDFKRKAR [Compound 96] | 1.1 |
| −3.30 | RETNAGRSDTRQQRKLLKS [Compound 48] | 7 |
| 1.70 | TNAGRSDTRQQYRKLLKSTL [Compound 52] | 11.1 |
| 32.30 | SGRVLATKLRETNA [Compound 73] | 0.8 |
| 9.90 | TNAGRADTRQQYRKLL [Compound 77] | 6.9 |
| −25.40 | SWSRWTLALDFKRKAR [Compound 102] | 1 |
| 26.80 | NGEVQAEIKKSWSR [Compound 100] | 1.8 |
| 3.00 | RETNAGRSDTRQQYRKLL [Compound 59] | 5.2 |
| −5.80 | TNAGRSDTRQQYRKLLF [Compound 83] | 7 |
| 8.30 | KLRETNAGRSDTRQQRKLL [Compound 47] | 2.7 |
| −47.60 | RETNAGRSDTRQQYRF [Compound 61] | 0.7 |
| 22.30 | SGRVLATKLRET [Compound 72] | 0.7 |
